Test results as given in the RNAGym collection of RNA variant scans (doi:10.1093/molbev/msab373).

B1: Azoarcus group I ribozyme (parent)
chain: GUGCCUUGCGCCGGGAAACCACGCAAGGGAUGGUGUCAAAUUCGGCGAAACCUAAGCGCCCGCCCGGGCGUAUGGCAACGCCGAGCCAAGCUUCGGCGCCUGCGCCGAUGAAGGUGUAGAGACUAGACGGCACCCACCUAAGGCAAACGCUAUGGUGAAGGCAUAGUCCAGGGAGUGGCGAAAGUCACACAAACCGG

Variants of: B1
Test: reverse-splicing fitness (ratio to wild type); higher = more active; in vitro selection; Mg2+ level not given
Summary of the method: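 An in vitro group I ribozyme library with randomized positions was T7-transcribed and gel-purified. In triplicate, 10 pmol RNA in EPPS pH 7.5 was reacted with 50 pmoles of a 30-nt RNA substrate for 1 h at 37 °C across several added MgCl2 levels (1–48 mM), then stopped with EDTA. Products were reverse transcribed from a substrate-complementary primer, PCR-amplified and sequenced (HiSeq 4000). Fitness is a variant's read proportion after selection over that before, normalised to wild type.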

| Variant | reverse-splicing fitness |
| --- | --- |
| GUGCCUUGCGCCGGGAAACCACGCAAGGGAUGGUGUCAAAUUCGGCGAAACCUAAGCGCCCGCCCGGGCGUAUGGCAACGCCGAGCCAAGCUUCGGCGCCUGCGCCGAUGUAGGUGUAGUGACUAGACGGCACCCACCUAAGGCAAACGCUAUGGUGAAGGCAUAGUCUAGGGAGUGGCGAAAGUCACACAAACCGG | 0.0747 |
| GUGCCUUGCGCCGGGAAACCACGCAAGGGAUGGUGUCAAAUUCGGCGAAACCUAAGCGCCCGCCCGGGCGUAUGGCAACGCCGAGCCAAGCUUCGGCGCCUGCGCCGAUGUAGGUGUAGAGACUAGACGGCACCCACCUAAGGCCAACGAUAUGGUGAAGGCAUAGUCCAGGGAGGGGCGAAAGUCACACAAACCGG | 0.0517 |
| GUGCCUUGCGCCGGGAAACCACGCAAGGGAUGGUGUCAAAUUCGGCGAAACCUAAGCGCCCGCCCGGGCGUAUGGCAACGCCGAGCCAAGCUUCGGCGCCUGCGCCGAUGUAGGUGUAGAGACUAGACGGCACCCACCUAAGGCCAACGAUAUGGUGAAGGCAUAGUCCAGGGAGAGGCGAAAGUCACACAAACCGG | 0.103 |
| GUGCCUUGCGCCGGGAAACCACGCAAGGGAUGGUGUCAAAUUCGGCGAAACCUAAGCGCCCGCCCGGGCGUAUGGCAACGCCGAGCCAAGCUUCGGCGCCUGCGCCGAUGUAGGUGUAGAGACUAGACGGCACCCACCUAAGGCCAACGAUAUGGUGAAGGCAUAGUCCAGGGAGCGGCGAAAGUCACACAAACCGG | 0.127 |
| GUGCCUUGCGCCGGGAAACCACGCAAGGGAUGGUGUCAAAUUCGGCGAAACCUAAGCGCCCGCCCGGGCGUAUGGCAACGCCGAGCCAAGCUUCGGCGCCUGCGCCGAUGUAGGUGUAGUGACUAGACGGCACCCACCUAAGGCAAACGCUAUGGUGAAGGCAUAGUCGAGGGAGCGGCGAAAGUCACACAAACCGG | 0.00937 |
| GUGCCUUGCGCCGGGAAACCACGCAAGGGAUGGUGUCAAAUUCGGCGAAACCUAAGCGCCCGCCCGGGCGUAUGGCAACGCCGAGCCAAGCUUCGGCGCCUGCGCCGAUGUAGGUGUAGUGACUAGACGGCACCCACCUAAGGCAAACGCUAUGGUGAAGGCAUAGUCGAGGGAGGGGCGAAAGUCACACAAACCGG | 0.00197 |
| GUGCCUUGCGCCGGGAAACCACGCAAGGGAUGGUGUCAAAUUCGGCGAAACCUAAGCGCCCGCCCGGGCGUAUGGCAACGCCGAGCCAAGCUUCGGCGCCUGCGCCGAUGUAGGUGUAGUGACUAGACGGCACCCACCUAAGGCAAACGCUAUGGUGAAGGCAUAGUCGAGGGAGAGGCGAAAGUCACACAAACCGG | 0.00625 |
| GUGCCUUGCGCCGGGAAACCACGCAAGGGAUGGUGUCAAAUUCGGCGAAACCUAAGCGCCCGCCCGGGCGUAUGGCAACGCCGAGCCAAGCUUCGGCGCCUGCGCCGAUGUAGGUGUAGUGACUAGACGGCACCCACCUAAGGCAAACGCUAUGGUGAAGGCAUAGUCUAGGGAGCGGCGAAAGUCACACAAACCGG | 0.0202 |
| GUGCCUUGCGCCGGGAAACCACGCAAGGGAUGGUGUCAAAUUCGGCGAAACCUAAGCGCCCGCCCGGGCGUAUGGCAACGCCGAGCCAAGCUUCGGCGCCUGCGCCGAUGUAGGUGUAGUGACUAGACGGCACCCACCUAAGGCAAACGCUAUGGUGAAGGCAUAGUCUAGGGAGAGGCGAAAGUCACACAAACCGG | 0.0126 |
| GUGCCUUGCGCCGGGAAACCACGCAAGGGAUGGUGUCAAAUUCGGCGAAACCUAAGCGCCCGCCCGGGCGUAUGGCAACGCCGAGCCAAGCUUCGGCGCCUGCGCCGAUGUAGGUGUAGUGACUAGACGGCACCCACCUAAGGCAAACGCUAUGGUGAAGGCAUAGUCUAGGGAGGGGCGAAAGUCACACAAACCGG | 0.00332 |
| GUGCCUUGCGCCGGGAAACCACGCAAGGGAUGGUGUCAAAUUCGGCGAAACCUAAGCGCCCGCCCGGGCGUAUGGCAACGCCGAGCCAAGCUUCGGCGCCUGCGCCGAUGUAGGUGUAGAGACUAGACGGCACCCACCUAAGGCCAACGAUAUGGUGAAGGCAUAGUCGAGGGAGCGGCGAAAGUCACACAAACCGG | 0.0127 |
| GUGCCUUGCGCCGGGAAACCACGCAAGGGAUGGUGUCAAAUUCGGCGAAACCUAAGCGCCCGCCCGGGCGUAUGGCAACGCCGAGCCAAGCUUCGGCGCCUGCGCCGAUGUAGGUGUAGAGACUAGACGGCACCCACCUAAGGCCAACGAUAUGGUGAAGGCAUAGUCGAGGGAGGGGCGAAAGUCACACAAACCGG | 0.00622 |
| GUGCCUUGCGCCGGGAAACCACGCAAGGGAUGGUGUCAAAUUCGGCGAAACCUAAGCGCCCGCCCGGGCGUAUGGCAACGCCGAGCCAAGCUUCGGCGCCUGCGCCGAUGUAGGUGUAGAGACUAGACGGCACCCACCUAAGGCCAACGAUAUGGUGAAGGCAUAGUCGAGGGAGAGGCGAAAGUCACACAAACCGG | 0.0227 |
| GUGCCUUGCGCCGGGAAACCACGCAAGGGAUGGUGUCAAAUUCGGCGAAACCUAAGCGCCCGCCCGGGCGUAUGGCAACGCCGAGCCAAGCUUCGGCGCCUGCGCCGAUGUAGGUGUAGUGACUAGACGGCACCCACCUAAGGCAAACGCUAUGGUGAAGGCAUAGUCCAGGGAGCGGCGAAAGUCACACAAACCGG | 0.296 |
| GUGCCUUGCGCCGGGAAACCACGCAAGGGAUGGUGUCAAAUUCGGCGAAACCUAAGCGCCCGCCCGGGCGUAUGGCAACGCCGAGCCAAGCUUCGGCGCCUGCGCCGAUGUAGGUGUAGUGACUAGACGGCACCCACCUAAGGCAAACGCUAUGGUGAAGGCAUAGUCCAGGGAGGGGCGAAAGUCACACAAACCGG | 0.0683 |
| GUGCCUUGCGCCGGGAAACCACGCAAGGGAUGGUGUCAAAUUCGGCGAAACCUAAGCGCCCGCCCGGGCGUAUGGCAACGCCGAGCCAAGCUUCGGCGCCUGCGCCGAUGUAGGUGUAGUGACUAGACGGCACCCACCUAAGGCAAACGCUAUGGUGAAGGCAUAGUCCAGGGAGAGGCGAAAGUCACACAAACCGG | 0.239 |
| GUGCCUUGCGCCGGGAAACCACGCAAGGGAUGGUGUCAAAUUCGGCGAAACCUAAGCGCCCGCCCGGGCGUAUGGCAACGCCGAGCCAAGCUUCGGCGCCUGCGCCGAUGUAGGUGUAGAGACUAGACGGCACCCACCUAAGGCCAACGAUAUGGUGAAGGCAUAGUCUAGGGAGGGGCGAAAGUCACACAAACCGG | 0.00676 |
| GUGCCUUGCGCCGGGAAACCACGCAAGGGAUGGUGUCAAAUUCGGCGAAACCUAAGCGCCCGCCCGGGCGUAUGGCAACGCCGAGCCAAGCUUCGGCGCCUGCGCCGAUGUAGGUGUAGAGACUAGACGGCACCCACCUAAGGCCAACGAUAUGGUGAAGGCAUAGUCUAGGGAGAGGCGAAAGUCACACAAACCGG | 0.0157 |
| GUGCCUUGCGCCGGGAAACCACGCAAGGGAUGGUGUCAAAUUCGGCGAAACCUAAGCGCCCGCCCGGGCGUAUGGCAACGCCGAGCCAAGCUUCGGCGCCUGCGCCGAUGUAGGUGUAGAGACUAGACGGCACCCACCUAAGGCCAACGAUAUGGUGAAGGCAUAGUCUAGGGAGCGGCGAAAGUCACACAAACCGG | 0.0105 |
| GUGCCUUGCGCCGGGAAACCACGCAAGGGAUGGUGUCAAAUUCGGCGAAACCUAAGCGCCCGCCCGGGCGUAUGGCAACGCCGAGCCAAGCUUCGGCGCCUGCGCCGAUGUAGGUGUAGAGACUAGACGGCACCCACCUAAGGCCAACGCUAUGGUGAAGGCAUAGUCCAGGGAGUGGCGAAAGUCACACAAACCGG | 0.974 |
| GUGCCUUGCGCCGGGAAACCACGCAAGGGAUGGUGUCAAAUUCGGCGAAACCUAAGCGCCCGCCCGGGCGUAUGGCAACGCCGAGCCAAGCUUCGGCGCCUGCGCCGAUGUAGGUGUAGAGACUAGACGGCACCCACCUAAGGCCAACGAUAUGGUGAAGGCAUAGUCAAGGGAGGGGCGAAAGUCACACAAACCGG | 0.00617 |
| GUGCCUUGCGCCGGGAAACCACGCAAGGGAUGGUGUCAAAUUCGGCGAAACCUAAGCGCCCGCCCGGGCGUAUGGCAACGCCGAGCCAAGCUUCGGCGCCUGCGCCGAUGUAGGUGUAGAGACUAGACGGCACCCACCUAAGGCCAACGAUAUGGUGAAGGCAUAGUCAAGGGAGAGGCGAAAGUCACACAAACCGG | 0.0128 |
| GUGCCUUGCGCCGGGAAACCACGCAAGGGAUGGUGUCAAAUUCGGCGAAACCUAAGCGCCCGCCCGGGCGUAUGGCAACGCCGAGCCAAGCUUCGGCGCCUGCGCCGAUGUAGGUGUAGAGACUAGACGGCACCCACCUAAGGCCAACGAUAUGGUGAAGGCAUAGUCAAGGGAGCGGCGAAAGUCACACAAACCGG | 0.00656 |
| GUGCCUUGCGCCGGGAAACCACGCAAGGGAUGGUGUCAAAUUCGGCGAAACCUAAGCGCCCGCCCGGGCGUAUGGCAACGCCGAGCCAAGCUUCGGCGCCUGCGCCGAUGUAGGUGUAGAGACUAGACGGCACCCACCUAAGGCCAACGAUAUGGUGAAGGCAUAGUCCAGGGAGUGGCGAAAGUCACACAAACCGG | 0.23 |
| GUGCCUUGCGCCGGGAAACCACGCAAGGGAUGGUGUCAAAUUCGGCGAAACCUAAGCGCCCGCCCGGGCGUAUGGCAACGCCGAGCCAAGCUUCGGCGCCUGCGCCGAUGUAGGUGUAGAGACUAGACGGCACCCACCUAAGGCCAACGGUAUGGUGAAGGCAUAGUCCAGGGAGUGGCGAAAGUCACACAAACCGG | 0.426 |
| GUGCCUUGCGCCGGGAAACCACGCAAGGGAUGGUGUCAAAUUCGGCGAAACCUAAGCGCCCGCCCGGGCGUAUGGCAACGCCGAGCCAAGCUUCGGCGCCUGCGCCGAUGUAGGUGUAGAGACUAGACGGCACCCACCUAAGGCCAACGAUAUGGUGAAGGCAUAGUCAAGGGAGUGGCGAAAGUCACACAAACCGG | 0.00817 |
| GUGCCUUGCGCCGGGAAACCACGCAAGGGAUGGUGUCAAAUUCGGCGAAACCUAAGCGCCCGCCCGGGCGUAUGGCAACGCCGAGCCAAGCUUCGGCGCCUGCGCCGAUGUAGGUGUAGAGACUAGACGGCACCCACCUAAGGCCAACGAUAUGGUGAAGGCAUAGUCUAGGGAGUGGCGAAAGUCACACAAACCGG | 0.0131 |
| GUGCCUUGCGCCGGGAAACCACGCAAGGGAUGGUGUCAAAUUCGGCGAAACCUAAGCGCCCGCCCGGGCGUAUGGCAACGCCGAGCCAAGCUUCGGCGCCUGCGCCGAUGUAGGUGUAGAGACUAGACGGCACCCACCUAAGGCCAACGAUAUGGUGAAGGCAUAGUCGAGGGAGUGGCGAAAGUCACACAAACCGG | 0.00935 |
| GUGCCUUGCGCCGGGAAACCACGCAAGGGAUGGUGUCAAAUUCGGCGAAACCUAAGCGCCCGCCCGGGCGUAUGGCAACGCCGAGCCAAGCUUCGGCGCCUGCGCCGAUGUAGGUGUAGAGACUAGACGGCACCCACCUAAGGCCAACGGUAUGGUGAAGGCAUAGUCAAGGGAGUGGCGAAAGUCACACAAACCGG | 0.00988 |
| GUGCCUUGCGCCGGGAAACCACGCAAGGGAUGGUGUCAAAUUCGGCGAAACCUAAGCGCCCGCCCGGGCGUAUGGCAACGCCGAGCCAAGCUUCGGCGCCUGCGCCGAUGUAGGUGUAGAGACUAGACGGCACCCACCUAAGGCCAACGGUAUGGUGAAGGCAUAGUCAAGGGAGAGGCGAAAGUCACACAAACCGG | 0.0076 |
